Measured values as given in the DeepSol protein solubility set.

Test: soluble on expression in E. coli; label from the status in PepcDB or PDB records

Sequence | soluble on expression in E. coli
MIQNDYSIYQYHVEFEPTVDSKATRENMLRQPSVTVEIGKHFVFDGMILYLKEEWDQNQMIEVQHPNDNSLICIRFKKTNRFLVDDPQTINIFNTIIRRSFDAMKLTQIGRNYFDWDNSRALRKELRSCQNNRQRVQEKMNEVYGGSTIITRYNNKLHRFTRLDNEITPLSKFQKDGEQIILKEYFKNQYDIDITDDEQFIIISEGKPKQPGEPPQVNYIVPELCFPTGLTDEMRKDFKMMKEIAKHTRMSPQQRLDETRKLITKLSQNQTMMECFQYWGISLGQDLANVQARVLKSEPLQGKRQYEGKQAEWARGVKECGIYRGSNMTNWIVIGPGSGNSGLLAQKFIAEARNLGRTLQVQLGEPMCVKINGISPNDYLEGLKAAIKSVDGEEIHMLVVMLADDNKTRYDSLKKYLCVECPIPNQCVNLRTLAGKSKDGGENKNLGSIVLKIVLQMICKTGGALWKVNIPLKSTMIVGYDLYHDSTLKGKTVGACVSTTSNDFTQFYSQTRPHENPTQLGNNLTHFVRKSLKQYYDNNDKTLPSRLILYRDGAGDGQIPYIKNTEVKLVRDACDAVTDKAAELSNKVQEKIKLAFIIVTKRVNMRILKQGSSSKSAINPQPGTVVDTTVTRPERMDFYLVPQFVNQGTVTPVSYNIIHDDTGLGPDKHQQLAFKLCHLYYNWQGTVRVPAPCQYAHKLAFLTAQSLHDDANGYLRDKLFFL | not soluble
MEYTQIPSFALYNNASIFQFFPRNKRLSTHQKSCLDEHARKMAVFMMERQEEYRYYENLANQEQFSDDACFSDTGMDSGFCSGDTSTGQSASTSPAPAHLIPNPFFDPEYVASKTTMKLVANPFYNPKLAKEIKKKSTHTSKFQ | not soluble
MMEQKQEIHATVSINNVQYEVIKNFRDGFSEEAFKERYAEILNKYDYIVGDWGYEQLRLRGFFDDSNQRATYDTKISTLTEYLYEYCNFGCAHFVLRKVKK | not soluble
GMTGLSQSQASPMQIQPGNAAFNPWTDAALDTIRDVNQALTLYAEMRVVPAHHDAFLAAIDTVSAKLRVLPGFLSLALKQMSGDSTMVKNYPETYKGVLATAYLDGVAAGTQPYFYNLFVRFADGRAARAAGFEALFETHIHPLLHAMAPRGGDGPELLAYRAVLQSVVAGDRHAIYRGAEEIRSFLRRPVELPERETVTVENHVMVPEDKHAAWEPQVAILLQVAQDTFEPQDEPSGVGLPGARDNRYYRKALSTEILRNAHADGGLRAYIMHGVWESVWDHENSHLDPRFLAAAGPVGAAAVVGPVEPFYLTRRLVVAD | soluble
MNEKTINEQYAYIRTLLEEKRLKEALMQLESLLWQCPDWDLRTRLEQLQTSYKYMLEYMRQGANDPERWNVYRKLIADTWEIADRSRLLMLDNASSRYYHEVRRTPRPESLSAYTLKKLLHMLESFNDDLAVSGLLSDEKMDEVLKRHEETLKYMFLQTWTNSAWTPEEEEDAQSMLTSELLPVNDLCLFISAVTLSLMECFDLRKIMWLLDAYRHPDVNAGQRALVGVIFIFHIYKNRLSLYNDLVKRVDLMDEISPFKEDVARIYHQMLLCQETEKIDKKMREEIIPEMLKNVSSMRNMRFGFEENEDENDDKNPDWADAFEQSGLGDKLREMNELQLEGADVYMSTFAALKSYPFFREVQNWFYPFSKQQSDVIKQLKQEGNEKNTLLDLILQSGFFSNSDKYSLFFTIRQLPKAQQDMMLSQLGEQQVAELTEKSSAETMKKFNERPGTVSNQYLHDLYRFFKLSVRRHEFRDIFKEKLDLHHIPALSNVLYSEDILFPIADFYLKKERWNEAIEVYEEMETIGALQERGAEYYQKLGYALQKSKKYAEAIGAYLKADTLKPDNIWNNRHLAICYRLNRNYQAALSYYKKVEEATPEDTNVIFHIGSCLAELGQYEEAANYFFKLDFIESNCIKAWRGIGWCSFISRKYEQAMKYYEKIIEQKPLAIDYMNAGHVAWTMGDIQKAAALYGKSITANGNRERFLEMFRKDEEALLKQGIQEEDIPLMLDLL | not soluble
MKPVQSVSATQHYNPLTNLGQEASCSHEISGITQTEGMQATAATTQTAEQLTTARVRDITAAAKVIPDGTTVMSRKPEDLSQLQTAYLAAKNAPTHPDLYLKLCETFRVHDERHASEGHENICAKTMTARIDDDAIRVMAYASRGMHGGDVNNFLKFSFNSGLPNPISSALPSMLTFGASSFIGAVHGPWSGFGSALAFAAAKPFMAGGIQPAIVSLCDNIRGRNAPTVLAKGEVNDEIWLDAAAQTLEGLNEDTRRALTSFDDAVQAAITSVGIRDPKFLETDEGLELFFDHLSDTHFNCLREALEGVNNALQNTAPQTRESLRALEEASRPNMLEQRETTLKAEFSNLRQKEGNDWQRIPRSLRASGGTLTSGLSGLKRDEIPTRMNPALDRKSHFEGLNALASPAVGTSYAAAISLLQSPMAGLDERNKQKFNVKAAIVFYDAFTPEGKQRYLAGEEMDPDRDVDQAKLRGVFTSVSEYMVKSTQENLKQRQKVLGVEISEAGHALNALPENTSSITPPEIRAKVERYKALSADMSAVTQAIREGNPNFLTDLPDGEVKKAFDDCVNSGGMHVLENMTKVKYAKQGELKAQWTQKVSTDVSMFGLAGQFTPSIVNKLAAAICGGAGHIPNAVVGFLGAYSLAASFIGAQTQFAAINAKNNFREGNPKPTSLETFMRGNLAPVMQASANRHSQHALQGAEQAISTARQALNSSLGQNL | not soluble
MVQAEGLTKRYRKAVAVEGLTFGVGPGEVYALLGPNGAGKTTTLRLLSTLVRPSAGRALVAGFDVVREPLEVRRNLGLVNGGMRVYERLTGREVLEFFAGFYGLKGRAFLGALDWVVDLLEMEETLDKKVGEMSTGMRQKVVIARAILHRPKVLLLDEATAGLDIFARRALLDFVKAYRDLGHAVIYSTHVMGEAEEVADRVGFLHRGRLVYEGSKEEALALGEGSLERAFVRQVRGA | soluble
KNSINTIKLIDDIIALHNDPKGNKLLWNDNWQDKIINRDLANIFEKIDESVSELGGLEMYQEMVGVNPYDPTEPVCGLSAQNIFKLMTEGEHAVDPVEMAQTGKIDGNEFAESVDQLSSAKNYVALVNDRRLGHMFLIDIPSNDQETVGYIYQSDLGQGALPPLKIADWLNSRGKDAVSLNKLKKLLSREFNLLSDDEKRALISETLDIHKDVSNVELDRIKRDRGVDIYLTEYDVNNFYENIETLKSKLSNYDKKLSKPK | soluble
MIDRLAMIGVNVKTASREHVARLEKEWEKHLDTIGYASRGTVIIATCNRFEVYLDSPSRLVEDLASSIASPGGEGLVRLQGIDAARHLFRVASGLESQIIGDHEVLGQVRRAWLKSREKGFTTPLLDEVFHRALKTGARVRSESAISSGGVGYSSAAVSLAASLLGGGLDGARVGIVGAGMAAVGIARALCTRWRPRVVAVFNRTPERGWEVAGKCRGVESLVLPLDELAKLINELDALFVAIAGSTNILERGRVERGVSPRVIVDISNPPVTPKVAGRVFHMPEVEEEAKRMMEERLRWIPAAEAIIEEELEALLDALSRRRARESSRSVMRALSILAEREYERTLAGLRNGVDPREAVELALNSYTKKVGGALRRLLEEASDRGQLSLEDIEAILVSEFARIAENSGFKNGSTG | soluble
MGKRKSKRKAPTKAKAVMPLDTQFNCPFCNHERVCEVKMDREKNVGYISCRVCSEDFQTNINYLSEPIDVYSDWVDACEQANNA | not soluble
EHRYGHLLGQINWISLGGGIHFTEPGYALDAFCDRLRRFSEQYGVQVYLEPGEAAITNTATLEVTVLDVMRNEKNLAIVDAATEAHMLDLLIYRMSARVQPDQGPHRYVIYGNSCLAGDVFGEFSFESPLQPGSRISIQDAAGYTMVKKNWFNGVRMPAIAIRELDGEIRLVREFGYQD | not soluble
MPCVQAQYSPSPPGSTYATQTYGSEYTTEIMNPDYAKLTMDLGSTGIMATATTSLPSFSTFMEGYPSSCELKPSCLYQMPPSGPRPLIKMEEGREHGYHHHHHHHHHHHHHHQQQQPSIPPPSGPEDEVLPSTSMYFKQSPPSTPTTPGFPPQAGALWDDELPSAPGCIAPGPLLDPQMKAVPPMAAAARFPIFFKPSPPHPPAPSPAGGHHLGYDPTAAAALSLPLGAAAAAGSQAAALEGHPYGLPLAKRTATLTFPPLGLTASPTASSLLGESPSLPSPPNRSSSSGEGTCAVCGDNAACQHYGVRTCEGCKGFFKRTVQKNAKYVCLANKNCPVDKRRRNRCQYCRFQKCLSVGMVKEVVRTDSLKGRRGRLPSKPKSPLQQEPSQPSPPSPPICMMNALVRALTDATPRDLDYSRYCPTDQATAGTDAEHVQQFYNLLTASIDVSRSWAEKIPGFTDLPKEDQTLLIESAFLELFVLRLSIRSNTAEDKFVFCNGLVLHRLQCLRGFGEWLDSIKDFSLNLQSLNLDIQALACLSALSMITERHGLKEPKRVEELCNKITSSLKDHQRKGQALEPSEPKVLRALVELRKICTQGLQRIFYLKLEDLVSPPSVIDKLFLDTLPF | soluble
PRNQMPRIHASSGTTGKPTVVGYTKTDLDNWANLMARSMVGAGASPDDIVHNAYGYGLFTGGLGAHYGAERLGCTVVPASGGGTERQVQLIVDFGANVLCCTPSYALNIAEVAEQMGVSLKDAPLRVGLFGAEPWSDAMRRDLEARLGIKAVDVYGLSEIMGPGVACECH | not soluble
MYQDLIRNELNEAAETLANFLKDDANIHAIQRAAVLLADSFKAGGKVLSCGNGGSHCDAMHFAEELTGRYRENRPGYPAIAISDVSHISCVGNDFGFNDIFSRYVEAVGREGDVLLGISTSGNSANVIKAIAAAREKGMKVITLTGKDGGKMAGTADIEIRVPHFGYADRIQEIHIKVIHILIQLIEKEMVK | soluble
MADEVIEYKFTCSSFYYGRETSQVLNTSITKGLKCVWKTRYASIAEQAFFSWEFDWNELKRLGIDSLAGNITVKSASMSPLNVQIDLRKPTEIVERAFYLRDDDYAYNSYINKTTFEYSFVPYCAQVDESLYEKMFLPSDENDAILVIGNKKLHVCKAFLSYHSSFFRAIFSSAFKEGQMSEIPIKDVTYKDFALMLSTIYPDAVFPNDRTVEKLLEMGDRFIIQSVINHVEYHLLHNTSIGNEKLMWMADRYGMPKLLVKSIQQMNSIEKAKALKSSPDYAKLSKEAKEKILDRLMALI | not soluble
MIIRPERQGDEEAIARVTEDAFRNVEHRSGTEQLIVARLRDAGALTVSLVAEDSEGIIGHVGFSPVTLSSGETGWFCLAPLSVTPERQGEGVGSRLARDGLAVLERLSAAGCVVVGDPAYYGRFGFRPVAGLSAEGIPDEYFTVLRLHGGTPSGIVGFHPGFDGDNA | not soluble
MNRREANALDRYLTEPTEKPHKETYEDDPVDTTDYFGNEIADEDGVFEITFAMKCLYTGQPVLTCKKIATQDTIVDLIEELGEENVYLIEYVSSGKRYKEGLLND | not soluble
MPEASHPDHLIRAGRLQADDARLFTPEADGPADQTPPDEPGWLVTLATWKAAAATLRARRHPVGVQLPPDARLDELTGPDGELDRAALSFIAIEFPVYTDGRGYSLAQLLRRRYGWDGELRAVGDVMIDTIHYQARVGFDSFLVKPGHDPQRALAAFRTFSVHYQHTYPAPLAA | not soluble
EKITILADAIPELHVEEANDKVMGSIDWEAALKQSAGKEDLAQEMLQMLVDFIPEVNEWIDKALESDISEEELCHYIHKLHGSSSYCGVPRLKQLCNLIETSLRQHQTISDIEPELFELQDEMEKVTKDANLLLSN | not soluble
MGLSGFHSFLCCRSRDYHLVINTLIHTVMTMDITKSVAFTGHRSERILQVRMLYLYLDIVSQVKRLYSLGYRYFLSGMAEGFDLLAAQAVTALKAEYTDIRLIAVVPFSRQSNRYRPENKSLYDRIMKTADETVILREDYRKGCFHHRNDYLIDNSEIVLAYWDKQPYGGTYYTVGKARMVNRIIINLYK | not soluble
GEGITLNQVAVGCECQDCLWAPTGGCCPGASLHKFAYNDQGQVRLRAGLPIYECNSRCRCGYDCPNRVVQKGIRYDLCIFRTDDGRGWGVRTLEKIRKNSFVMEYVGEIITSEEAERRGQIYDRQGATYLFDLDYVEDVYTVDAAYYGNISHFVNHSCDPNLQVYNVFIDNLDERLPRIAFFATRTIRAGEELTFDYNMQVDPVDMESTRMDSNFGLAGLPGSPKKRVRIECKCGTESCRKYLF | not soluble
